# Measured values taken from patent publication US12630600B2 (MEDIMMUNE LIMITED, priority 2022, dated 2026).
# Starred links: 1 amine or outer side, 2 acyl side, 3 side chain; linkers in the order of their positions; H or OH if unused. Non-standard residues stand in square brackets, D forms with d. Groups on a side chain read outwards from the residue. Primed or numbered codes have the meaning given here. No end group written: not given here. *: point of attachment. C20 diacid = O=C(O)CCCCCCCCCCCCCCCCCCC(=O)*; C18 diacid = O=C(O)CCCCCCCCCCCCCCCCC(=O)*; γGlu = O=C(O)[C@H](CCC(=O)[*:2])N[*:1]; Palmitoyl = CCCCCCCCCCCCCCCC(=O)*; αMeF = C[C@](N)(Cc1ccccc1)C(=O)O; Myristoyl = CCCCCCCCCCCCCC(=O)*; PEG2′ = polyethylene glycol 2; αMeS = C[C@](N)(CO)C(=O)O; AEEA = NCCOCCOCC(=O)O; Aib = CC(C)(N)C(=O)O
# Molecular target: human GLP-1 receptor (human, UniProt P43220)
# Test: cell-based or functional assay
row,Binder,cAMP production EC50 [nM]
1,H[Aib]QGTFTSDVSK[αMeF]LDRK([AEEA-AEEA-γGlu-C18 diacid])RAQDFVRWLLAE-NH2 (N-terminus assumed; SMILES CC(C)C[C@H](NC(=O)[C@H](CC(C)C)NC(=O)[C@H](Cc1c[nH]c2ccccc12)NC(=O)[C@H](CCCNC(=N)N)NC(=O)[C@@H](NC(=O)[C@H](Cc1ccccc1)NC(=O)[C@H](CC(=O)O)NC(=O)[C@H](CCC(N)=O)NC(=O)[C@H](C)NC(=O)[C@H](CCCNC(=N)N)NC(=O)[C@H](CCCCNC(=O)COCCOCCNC(=O)COCCOCCNC(=O)CC[C@H](NC(=O)CCCCCCCCCCCCCCCCC(=O)O)C(=O)O)NC(=O)[C@H](CCCNC(=N)N)NC(=O)[C@H](CC(=O)O)NC(=O)[C@H](CC(C)C)NC(=O)[C@](C)(Cc1ccccc1)NC(=O)[C@H](CCCCN)NC(=O)[C@H](CO)NC(=O)[C@@H](NC(=O)[C@H](CC(=O)O)NC(=O)[C@H](CO)NC(=O)[C@@H](NC(=O)[C@H](Cc1ccccc1)NC(=O)[C@@H](NC(=O)CNC(=O)[C@H](CCC(N)=O)NC(=O)C(C)(C)NC(=O)[C@@H](N)Cc1c[nH]cn1)[C@@H](C)O)[C@@H](C)O)C(C)C)C(C)C)C(=O)N[C@@H](C)C(=O)N[C@@H](CCC(=O)O)C(N)=O) [Peptide 461],0.167
2,H[Aib]QGTFTSDVSK[αMeF]LDTK([AEEA-AEEA-γGlu-C18 diacid])RARDFVQWLL[Aib]TE-NH2 (N-terminus assumed; SMILES CC(C)C[C@H](NC(=O)[C@H](Cc1c[nH]c2ccccc12)NC(=O)[C@H](CCC(N)=O)NC(=O)[C@@H](NC(=O)[C@H](Cc1ccccc1)NC(=O)[C@H](CC(=O)O)NC(=O)[C@H](CCCNC(=N)N)NC(=O)[C@H](C)NC(=O)[C@H](CCCNC(=N)N)NC(=O)[C@H](CCCCNC(=O)COCCOCCNC(=O)COCCOCCNC(=O)CC[C@H](NC(=O)CCCCCCCCCCCCCCCCC(=O)O)C(=O)O)NC(=O)[C@@H](NC(=O)[C@H](CC(=O)O)NC(=O)[C@H](CC(C)C)NC(=O)[C@](C)(Cc1ccccc1)NC(=O)[C@H](CCCCN)NC(=O)[C@H](CO)NC(=O)[C@@H](NC(=O)[C@H](CC(=O)O)NC(=O)[C@H](CO)NC(=O)[C@@H](NC(=O)[C@H](Cc1ccccc1)NC(=O)[C@@H](NC(=O)CNC(=O)[C@H](CCC(N)=O)NC(=O)C(C)(C)NC(=O)[C@@H](N)Cc1c[nH]cn1)[C@@H](C)O)[C@@H](C)O)C(C)C)[C@@H](C)O)C(C)C)C(=O)N[C@@H](CC(C)C)C(=O)NC(C)(C)C(=O)N[C@H](C(=O)N[C@@H](CCC(=O)O)C(N)=O)[C@@H](C)O) [Peptide 489],0.0228
3,H[Aib]QGTFTSDVSK[αMeF]LDTK([AEEA-AEEA-γGlu-C18 diacid])RARDFVQWLLE[Aib]K-NH2 (N-terminus assumed; SMILES CC(C)C[C@H](NC(=O)[C@H](Cc1c[nH]c2ccccc12)NC(=O)[C@H](CCC(N)=O)NC(=O)[C@@H](NC(=O)[C@H](Cc1ccccc1)NC(=O)[C@H](CC(=O)O)NC(=O)[C@H](CCCNC(=N)N)NC(=O)[C@H](C)NC(=O)[C@H](CCCNC(=N)N)NC(=O)[C@H](CCCCNC(=O)COCCOCCNC(=O)COCCOCCNC(=O)CC[C@H](NC(=O)CCCCCCCCCCCCCCCCC(=O)O)C(=O)O)NC(=O)[C@@H](NC(=O)[C@H](CC(=O)O)NC(=O)[C@H](CC(C)C)NC(=O)[C@](C)(Cc1ccccc1)NC(=O)[C@H](CCCCN)NC(=O)[C@H](CO)NC(=O)[C@@H](NC(=O)[C@H](CC(=O)O)NC(=O)[C@H](CO)NC(=O)[C@@H](NC(=O)[C@H](Cc1ccccc1)NC(=O)[C@@H](NC(=O)CNC(=O)[C@H](CCC(N)=O)NC(=O)C(C)(C)NC(=O)[C@@H](N)Cc1c[nH]cn1)[C@@H](C)O)[C@@H](C)O)C(C)C)[C@@H](C)O)C(C)C)C(=O)N[C@@H](CC(C)C)C(=O)N[C@@H](CCC(=O)O)C(=O)NC(C)(C)C(=O)N[C@@H](CCCCN)C(N)=O) [Peptide 480],0.0126
4,H[Aib]QGTFTSDVSK[αMeF]LDTK([AEEA-AEEA-γGlu-C20 diacid])RARDFVRWLL[Aib]E-NH2 (N-terminus assumed; SMILES CC(C)C[C@H](NC(=O)[C@H](Cc1c[nH]c2ccccc12)NC(=O)[C@H](CCCNC(=N)N)NC(=O)[C@@H](NC(=O)[C@H](Cc1ccccc1)NC(=O)[C@H](CC(=O)O)NC(=O)[C@H](CCCNC(=N)N)NC(=O)[C@H](C)NC(=O)[C@H](CCCNC(=N)N)NC(=O)[C@H](CCCCNC(=O)COCCOCCNC(=O)COCCOCCNC(=O)CC[C@H](NC(=O)CCCCCCCCCCCCCCCCCCC(=O)O)C(=O)O)NC(=O)[C@@H](NC(=O)[C@H](CC(=O)O)NC(=O)[C@H](CC(C)C)NC(=O)[C@](C)(Cc1ccccc1)NC(=O)[C@H](CCCCN)NC(=O)[C@H](CO)NC(=O)[C@@H](NC(=O)[C@H](CC(=O)O)NC(=O)[C@H](CO)NC(=O)[C@@H](NC(=O)[C@H](Cc1ccccc1)NC(=O)[C@@H](NC(=O)CNC(=O)[C@H](CCC(N)=O)NC(=O)C(C)(C)NC(=O)[C@@H](N)Cc1c[nH]cn1)[C@@H](C)O)[C@@H](C)O)C(C)C)[C@@H](C)O)C(C)C)C(=O)N[C@@H](CC(C)C)C(=O)NC(C)(C)C(=O)N[C@@H](CCC(=O)O)C(N)=O) [Peptide 511],0.118
5,H[Aib]QGTFTSDVSK[αMeF]LDTK([AEEA-AEEA-γGlu-C18 diacid])RAQDFVRWLLE[Aib]G-OH (N-terminus assumed; SMILES CC(C)C[C@H](NC(=O)[C@H](Cc1c[nH]c2ccccc12)NC(=O)[C@H](CCCNC(=N)N)NC(=O)[C@@H](NC(=O)[C@H](Cc1ccccc1)NC(=O)[C@H](CC(=O)O)NC(=O)[C@H](CCC(N)=O)NC(=O)[C@H](C)NC(=O)[C@H](CCCNC(=N)N)NC(=O)[C@H](CCCCNC(=O)COCCOCCNC(=O)COCCOCCNC(=O)CC[C@H](NC(=O)CCCCCCCCCCCCCCCCC(=O)O)C(=O)O)NC(=O)[C@@H](NC(=O)[C@H](CC(=O)O)NC(=O)[C@H](CC(C)C)NC(=O)[C@](C)(Cc1ccccc1)NC(=O)[C@H](CCCCN)NC(=O)[C@H](CO)NC(=O)[C@@H](NC(=O)[C@H](CC(=O)O)NC(=O)[C@H](CO)NC(=O)[C@@H](NC(=O)[C@H](Cc1ccccc1)NC(=O)[C@@H](NC(=O)CNC(=O)[C@H](CCC(N)=O)NC(=O)C(C)(C)NC(=O)[C@@H](N)Cc1c[nH]cn1)[C@@H](C)O)[C@@H](C)O)C(C)C)[C@@H](C)O)C(C)C)C(=O)N[C@@H](CC(C)C)C(=O)N[C@@H](CCC(=O)O)C(=O)NC(C)(C)C(=O)NCC(=O)O) [Peptide 140],0.0227
6,H[αMeS]QGS[αMeF]TSDVSKILDSK([PEG2′-PEG2′-γGlu-Palmitoyl])AAQD[αMeF]VQ[Aib]IINT-NH2 [Peptide 134],0.000592
7,H[αMeS]QGS[αMeF]TSDVSKILDSK([PEG2′-PEG2′-γGlu-Myristoyl])AAQD[αMeF]VQ[Aib]IINT-NH2 [Peptide 135],0.000407
8,H[Aib]QGTFTSDVSK[αMeF]LDSK([AEEA-AEEA-γGlu-γGlu-C18 diacid])RAQDFVQWLL[Aib]T-NH2 (N-terminus assumed; SMILES CC(C)C[C@H](NC(=O)[C@H](Cc1c[nH]c2ccccc12)NC(=O)[C@H](CCC(N)=O)NC(=O)[C@@H](NC(=O)[C@H](Cc1ccccc1)NC(=O)[C@H](CC(=O)O)NC(=O)[C@H](CCC(N)=O)NC(=O)[C@H](C)NC(=O)[C@H](CCCNC(=N)N)NC(=O)[C@H](CCCCNC(=O)COCCOCCNC(=O)COCCOCCNC(=O)CC[C@H](NC(=O)CC[C@H](NC(=O)CCCCCCCCCCCCCCCCC(=O)O)C(=O)O)C(=O)O)NC(=O)[C@H](CO)NC(=O)[C@H](CC(=O)O)NC(=O)[C@H](CC(C)C)NC(=O)[C@](C)(Cc1ccccc1)NC(=O)[C@H](CCCCN)NC(=O)[C@H](CO)NC(=O)[C@@H](NC(=O)[C@H](CC(=O)O)NC(=O)[C@H](CO)NC(=O)[C@@H](NC(=O)[C@H](Cc1ccccc1)NC(=O)[C@@H](NC(=O)CNC(=O)[C@H](CCC(N)=O)NC(=O)C(C)(C)NC(=O)[C@@H](N)Cc1c[nH]cn1)[C@@H](C)O)[C@@H](C)O)C(C)C)C(C)C)C(=O)N[C@@H](CC(C)C)C(=O)NC(C)(C)C(=O)N[C@H](C(N)=O)[C@@H](C)O) [Peptide 463],0.274

# Molecular target: human glucagon receptor (human, UniProt P47871)
# Test: cell-based or functional assay
row,Binder,cAMP production EC50 [nM]
1,H[Aib]QGTFTSDVSK[αMeF]LDTK([AEEA-AEEA-γGlu-γGlu-C20 diacid])RARDFVQWLLE[Aib]G-NH2 [Peptide 458],0.385
2,H[αMeS]QGS[αMeF]TSDVSKILDSK([PEG2′-PEG2′-γGlu-Palmitoyl])AAQD[αMeF]VQ[Aib]IINT-NH2 [Peptide 134],0.015
3,H[αMeS]QGS[αMeF]TSDVSKILDSK([PEG2′-PEG2′-γGlu-Myristoyl])AAQD[αMeF]VQ[Aib]IINT-NH2 [Peptide 135],0.015
4,H[Aib]QGTFTSDVSK[αMeF]LDTK([AEEA-AEEA-γGlu-C18 diacid])RAQDFVQWLL[Aib]T-OH (N-terminus assumed; SMILES CC(C)C[C@H](NC(=O)[C@H](Cc1c[nH]c2ccccc12)NC(=O)[C@H](CCC(N)=O)NC(=O)[C@@H](NC(=O)[C@H](Cc1ccccc1)NC(=O)[C@H](CC(=O)O)NC(=O)[C@H](CCC(N)=O)NC(=O)[C@H](C)NC(=O)[C@H](CCCNC(=N)N)NC(=O)[C@H](CCCCNC(=O)COCCOCCNC(=O)COCCOCCNC(=O)CC[C@H](NC(=O)CCCCCCCCCCCCCCCCC(=O)O)C(=O)O)NC(=O)[C@@H](NC(=O)[C@H](CC(=O)O)NC(=O)[C@H](CC(C)C)NC(=O)[C@](C)(Cc1ccccc1)NC(=O)[C@H](CCCCN)NC(=O)[C@H](CO)NC(=O)[C@@H](NC(=O)[C@H](CC(=O)O)NC(=O)[C@H](CO)NC(=O)[C@@H](NC(=O)[C@H](Cc1ccccc1)NC(=O)[C@@H](NC(=O)CNC(=O)[C@H](CCC(N)=O)NC(=O)C(C)(C)NC(=O)[C@@H](N)Cc1c[nH]cn1)[C@@H](C)O)[C@@H](C)O)C(C)C)[C@@H](C)O)C(C)C)C(=O)N[C@@H](CC(C)C)C(=O)NC(C)(C)C(=O)N[C@H](C(=O)O)[C@@H](C)O) [Peptide 35],0.335
